Experimental data reported in patent publication US20150166606A1 (RA PHARMACEUTICALS, published 2015).
Numbered stars: 1 amine (or outer) side, 2 acyl side, 3 side chain; on linkers, the order of the positions; unused ones are H or OH. Bridge positions count the residues as written; N and C are the ends. Square brackets hold non-standard residues; d marks the D form. Ends that are not written are not given here. * marks the point of attachment. mXylyl = xylyl linker from dibromoxylene joining the two cysteines; Trp(7-aza) = N[C@@H](Cc1c[nH]c2ncccc12)C(=O)O; des‑NH2 = missing amino-terminal amine group; Gly(octyl) = CCCCCCCC[C@H](N)C(=O)O; Gly(cPent) = N[C@H](C(=O)O)C1CCCC1; pXylylene = c1cc(C[*:2])ccc1C[*:1]; Gly(cPr) = N[C@H](C(=O)O)C1CC1; dPhg = N[C@@H](C(=O)O)c1ccccc1; Chg = N[C@H](C(=O)O)C1CCCCC1; Phg = N[C@H](C(=O)O)c1ccccc1; Tle = CC(C)(C)[C@H](N)C(=O)O; Tranexamic = tranexamic acid; NMeV = CN[C@H](C(=O)O)C(C)C; oXylyl = ortho-xylyl linker; NMeC = CN[C@@H](CS)C(=O)O; NMeS = CN[C@@H](CO)C(=O)O; azaTrp = not defined here; Heptanoyl = CCCCCCC(=O)*; Ac5c = NC1(C(=O)O)CCCC1; Nva = CCC[C@H](N)C(=O)O; Thp = NC1(C(=O)O)CCOCC1; Ac4c = NC1(C(=O)O)CCC1; Ac3c = NC1(C(=O)O)CC1; Aib = CC(C)(N)C(=O)O; AEA = NCCOCC(=O)O; Mpa = O=C(O)CCS

Target: T1, Activated human plasma kallikrein (Enzyme Research Laboratories, HPKa 1303) (human, UniProt P03952 20-638)
Assay: cell-based or functional assay

T1 sequence (P03952 20-638 limits assumed): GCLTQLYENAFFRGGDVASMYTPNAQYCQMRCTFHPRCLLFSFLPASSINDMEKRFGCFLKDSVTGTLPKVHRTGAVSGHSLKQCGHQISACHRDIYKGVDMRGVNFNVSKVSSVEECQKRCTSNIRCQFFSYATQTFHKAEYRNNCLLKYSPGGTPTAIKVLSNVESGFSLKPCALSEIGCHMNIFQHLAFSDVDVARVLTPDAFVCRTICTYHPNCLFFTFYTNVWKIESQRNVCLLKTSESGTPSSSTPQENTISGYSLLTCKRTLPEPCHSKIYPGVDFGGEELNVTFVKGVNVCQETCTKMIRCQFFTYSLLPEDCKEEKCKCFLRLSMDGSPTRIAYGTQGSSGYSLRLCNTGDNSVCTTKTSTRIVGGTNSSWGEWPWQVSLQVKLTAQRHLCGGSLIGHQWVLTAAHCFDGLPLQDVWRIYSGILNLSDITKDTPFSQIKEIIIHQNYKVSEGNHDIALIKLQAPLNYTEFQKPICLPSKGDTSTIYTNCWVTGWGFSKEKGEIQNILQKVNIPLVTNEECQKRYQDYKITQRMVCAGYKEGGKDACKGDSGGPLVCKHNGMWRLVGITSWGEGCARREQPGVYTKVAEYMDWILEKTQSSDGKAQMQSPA

Avg. IC50 [nM]	Binder
> 8880	{des‑NH2}-C[Aib]A[Chg]CR-OH (linker 1-5 via mXylyl) [R2153]
319	{des‑NH2}-C[Aib]A[Chg]CR-{3,3‑dimethylbutan‑2‑amine} (linker 1-5 via mXylyl) [R2152]
1940	{des‑NH2}-C[AEA][Phg]CR[Tle]-NH2 (linker 1-4 via mXylyl) [R2151]
28.8	Heptanoyl-C[dA][NMeS][Chg]CR[Tle]-NH2 (linker 1-5 via mXylyl) [R2148]
> 7930	XSICRV (not fully specified; [mXylyl(1,4)](2-SAc)-SICRV-NH2) [R2154]
177	{des‑NH2}-C[Ac5c]A[dPhg]CR[Tle]-NH2 (linker 1-5 via mXylyl) [R2149]
> 2190	{des‑NH2}-C[Thp]A[Chg]C[Trp(7-aza)][Tle]-NH2 (linker 1-5 via mXylyl) [R2147]
0.764	{des‑NH2}-C[Ac5c]A[Phg]CR[Tle]-NH2 (linker 1-5 via mXylyl) [R2150]

Target: T1, Activated human plasma kallikrein …
Assay: cell-based or functional assay
Remark: another data set of the same source

Avg. IC50 [nM]	Binder
2	{des‑NH2}-C[Ac4c]A[Phg]CR[Tle]-NH2 (linker 1-5 via mXylyl) [R2097]
12700	MCESI[NMeC]RV-NH2 (linker 2-6 via mXylyl) [R2101]
2040	MCESNCRV-NH2 (linker 2-6 via mXylyl) [R2088]
3.2	{des‑NH2}-C[Aib]A[Chg]CR[Tle]-NH2 (linker 1-5 via mXylyl) [R2091]
3960	{des‑NH2}-C[Ac3c]A[dPhg]CR[Tle]-NH2 (linker 1-5 via mXylyl) [R2092]
61.9	MCEYICRV-NH2 (linker 2-6 via mXylyl) [R2089]
1.5	{des‑NH2}-C[Thp]A[Chg]CR[Tle]-NH2 (linker 1-5 via mXylyl) [R2100]
0.1	{des‑NH2}-C[Aib]A[Phg]CR[Tle]LRYSE-NH2 (linker 1-5 via mXylyl) [R2099]
10.3	{des‑NH2}-C[Ac3c]A[Phg]CR[Tle]-NH2 (linker 1-5 via mXylyl) [R2093]
1750	{des‑NH2}-C[Tranexamic][Phg]CR[Tle]-NH2 (linker 1-4 via mXylyl (inferred); not fully specified; printed as [mXylyl(1,5)](des-NH2)C-Tranexamic-Phg-CR-Tbg-NH2) [R2090]
1.6	{des‑NH2}-C[Thp]A[Phg]CR[Tle]-NH2 (linker 1-5 via mXylyl) [R2095]
22.4	{des‑NH2}-C[Aib]A[dPhg]CR[Tle]LRYSE-NH2 (linker 1-5 via mXylyl) [R2098]
748	{des‑NH2}-C[Ac4c]A[dPhg]CR[Tle]-NH2 (linker 1-5 via mXylyl) [R2096]
46.9	{des‑NH2}-C[Thp]A[dPhg]CR[Tle]-NH2 (linker 1-5 via mXylyl) [R2094]

Further lines, the binder ahead of its results:

Binder	Avg. IC50 [nM]
{des‑NH2}-CAA[Phg]CR[Tle]-NH2 (linker 1-5 via mXylyl; not fully specified (residue 1); printed as [mXylyl(1,5)](des-NH2)C-AA-Phg-CR-Tbg-NH2) [R2075]	2.6
MCESICRE-NH2 (linker 2-6 via mXylyl) [R2087]	> 16600
{des‑NH2}-C[Phg]CR[Tle]-NH2 (linker 1-3 via pXylylene; not fully specified (residue 1); printed as [pXylyl(1,5)](des-NH2)C-Phg-CR-Tbg-NH2) [R2084]	1800
Ac-CAS[Phg]CR[Gly(cPr)]-NH2 (linker 1-5 via mXylyl; not fully specified (residue 2); printed as [mXylyl(1,5)]Ac-C-a-S-Phg-CR-Cppg-NH2) [R2070]	118
[Mpa][code a]A[Phg]CR[Tle]-NH2 (linker 1-5 via mXylyl) [R2079]	17.8
CESICRV-NH2 (linker 1-5 via mXylyl) [R2085]	21.9
Heptanoyl-CA[NMeS][Phg]CR[Tle]-NH2 (linker 1-5 via mXylyl; not fully specified (residue 2); printed as [mXylyl(1,5)]Heptanoyl-C-a-nMeS-Phg-C-R-Tbg-NH2) [R2068]	26.8
[Mpa][code a]S[Phg]C[azaTrp][Tle]-NH2 (linker 1-5 via mXylyl; reading uncertain; also: printed as [mXylyl(1,5)](des-NH2)C-a-S-Phg-C-azaTrp-Tbg-NH2) [R2080]	13200
{des‑NH2}-CGA[Phg]CR[Tle]-NH2 (linker 1-5 via mXylyl; not fully specified (residue 1); printed as [mXylyl(1,5)](des-NH2)C-GA-Phg-CR-Tbg-NH2) [R2076]	11.4
{des‑NH2}-C[Gly(octyl)]S[Phg]CR[Tle]-NH2 (linker 1-5 via mXylyl; not fully specified (residue 1); printed as [mXylyl(1,5)](des-NH2)C-OctG-S-Phg-CR-Tbg-NH2) [R2073]	18.6
MCESICR[NMeV]-NH2 (linker 2-6 via mXylyl) [R2074]	11600
{des‑NH2}-C[Aib]A[Phg]CR[Tle]-NH2 (linker 1-5 via mXylyl) [R2078]	2.8
Ac-CAS[Phg]CR[Chg]-NH2 (linker 1-5 via mXylyl; not fully specified (residue 2); printed as [mXylyl(1,5)]Ac-C-a-S-Phg-CR-Chg-NH2) [R2071]	1920
[Nva]CESICRV-NH2 (linker 2-6 via mXylyl) [R2009]	8.6
[Mpa][code a]S[Chg]CR[Tle]-NH2 (linker 1-5 via mXylyl) [R2082]	25.8
{des‑NH2}-C[Tranexamic][dPhg]CR[Tle]-NH2 (linker 1-4 via mXylyl (inferred); not fully specified; printed as [mXylyl(1,5)](des-NH2)C-Tranexamic-(D)Phg-CR-Tbg-NH2) [R2081]	> 10000
MCES[Gly(cPent)]CRV-NH2 (linker 2-6 via mXylyl) [R2077]	19.7
{des‑NH2}-CAAICRV-NH2 (linker 1-5 via mXylyl; not fully specified (residue 1); printed as [mXylyl(1,5)](des-NH2)C-AAICRV-NH2) [R2072]	13
Heptanoyl-CA[NMeS][dPhg]CR[Tle]-NH2 (linker 1-5 via mXylyl; not fully specified (residue 2); printed as [mXylyl(1,5)]Heptanoyl-C-a-nMeS-(D)Phg-C-R-Tbg-NH2) [R2069]	903
Ac-MCESICRV-NH2 (linker 2-6 via mXylyl) [R2008]	10.2
{des‑NH2}-C[Phg]CR[Tle]-NH2 (linker 1-3 via oXylyl; not fully specified (residue 1); printed as [oXylyl(1,5)](des-NH2)C-Phg-CR-Tbg-NH2) [R2083]	> 8900
MCESICRELRYSE-NH2 (linker 2-6 via mXylyl) [R2086]	8930
